Data published in patent US20090016967A1.

Biological target: IGF-1 receptor (IGF-1R) on primary mouse lung fibroblasts / in mouse lung (mouse) (UniProt Q60751)
Assay: cell-based or functional assay

IGF-1 receptor (IGF-1R) on primary mouse lung fibroblasts / in mouse lung (mouse), sequence (Q60751 31-1373): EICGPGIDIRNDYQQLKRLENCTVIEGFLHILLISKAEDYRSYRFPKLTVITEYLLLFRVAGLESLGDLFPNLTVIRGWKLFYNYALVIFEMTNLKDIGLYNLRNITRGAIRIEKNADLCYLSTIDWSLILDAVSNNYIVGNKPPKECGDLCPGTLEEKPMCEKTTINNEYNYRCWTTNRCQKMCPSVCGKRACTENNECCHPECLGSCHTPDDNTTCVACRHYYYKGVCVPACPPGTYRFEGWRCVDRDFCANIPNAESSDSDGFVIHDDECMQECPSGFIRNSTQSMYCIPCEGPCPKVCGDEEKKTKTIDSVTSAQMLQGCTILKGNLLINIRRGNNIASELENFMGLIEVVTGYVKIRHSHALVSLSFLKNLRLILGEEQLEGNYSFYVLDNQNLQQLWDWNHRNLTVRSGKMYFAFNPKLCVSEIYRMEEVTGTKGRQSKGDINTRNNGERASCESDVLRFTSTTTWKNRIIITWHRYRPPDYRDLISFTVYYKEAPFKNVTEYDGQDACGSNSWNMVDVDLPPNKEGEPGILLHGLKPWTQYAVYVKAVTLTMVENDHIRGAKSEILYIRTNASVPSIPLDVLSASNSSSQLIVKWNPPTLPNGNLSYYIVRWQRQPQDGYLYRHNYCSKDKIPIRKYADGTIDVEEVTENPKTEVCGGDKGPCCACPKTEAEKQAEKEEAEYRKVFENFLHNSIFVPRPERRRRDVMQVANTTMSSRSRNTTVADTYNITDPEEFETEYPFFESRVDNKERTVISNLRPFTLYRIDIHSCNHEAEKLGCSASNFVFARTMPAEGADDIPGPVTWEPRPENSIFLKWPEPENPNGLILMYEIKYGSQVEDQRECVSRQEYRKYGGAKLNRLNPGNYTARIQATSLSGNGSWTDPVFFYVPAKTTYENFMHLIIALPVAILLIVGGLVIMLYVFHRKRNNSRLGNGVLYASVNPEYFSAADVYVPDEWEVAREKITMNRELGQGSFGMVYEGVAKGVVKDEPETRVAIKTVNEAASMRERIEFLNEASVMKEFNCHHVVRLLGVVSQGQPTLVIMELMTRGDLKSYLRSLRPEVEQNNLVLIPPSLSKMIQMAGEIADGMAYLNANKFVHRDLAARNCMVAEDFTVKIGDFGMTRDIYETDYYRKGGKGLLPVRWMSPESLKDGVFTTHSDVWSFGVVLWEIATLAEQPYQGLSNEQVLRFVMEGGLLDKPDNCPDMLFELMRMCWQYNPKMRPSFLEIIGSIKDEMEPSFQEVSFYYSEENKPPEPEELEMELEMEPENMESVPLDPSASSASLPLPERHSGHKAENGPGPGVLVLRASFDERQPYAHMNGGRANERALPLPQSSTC

IGF-1 (R&D Systems) (ligand) showed a migration of mouse lung fibroblasts (transwell) of 1.8 fold.
